Assays:
[1] = target: the molecule itself; assay: SEC; analytical gel filtration on Superose 6 10/300 GL, 100 μl of dilution series injected (RBD 1.5-17.5 μM, ∆N 4.5-35 μM, SARAH 1.5-80 μM), 25 mM HEPES pH 7.4, 300 mM NaCl; MBP-tagged constructs; dimer to monomers
[2] = target: T1, Aurora A kinase domain (residues 107–403) (human) (UniProt O14965)
T1 sequence: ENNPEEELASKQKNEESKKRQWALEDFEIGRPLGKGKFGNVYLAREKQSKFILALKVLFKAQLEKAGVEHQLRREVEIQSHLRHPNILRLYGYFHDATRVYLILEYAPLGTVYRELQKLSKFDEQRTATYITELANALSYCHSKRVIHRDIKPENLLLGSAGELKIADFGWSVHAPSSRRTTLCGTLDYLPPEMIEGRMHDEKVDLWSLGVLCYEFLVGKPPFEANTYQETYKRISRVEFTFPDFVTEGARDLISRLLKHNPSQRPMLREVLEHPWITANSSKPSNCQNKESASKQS

[3] = target: T2, Aurora A kinase domain (residues 107–403) (human, UniProt O14965 107-403); assay: SPR; Biacore X; Aurora A kinase domain immobilised on a CM5 chip, RASSF1A variants as analytes; HBS-EP (10 mM HEPES pH 7.4, 150 mM NaCl, 3 mM EDTA, 0.005% Tween-20), 25 °C; equilibria not reached because of irreversible aggregation on the surface; details: both partners purified
T2 construct: Aurora A kinase, human, kinase domain only, residues 107-403
T2 sequence (looked up): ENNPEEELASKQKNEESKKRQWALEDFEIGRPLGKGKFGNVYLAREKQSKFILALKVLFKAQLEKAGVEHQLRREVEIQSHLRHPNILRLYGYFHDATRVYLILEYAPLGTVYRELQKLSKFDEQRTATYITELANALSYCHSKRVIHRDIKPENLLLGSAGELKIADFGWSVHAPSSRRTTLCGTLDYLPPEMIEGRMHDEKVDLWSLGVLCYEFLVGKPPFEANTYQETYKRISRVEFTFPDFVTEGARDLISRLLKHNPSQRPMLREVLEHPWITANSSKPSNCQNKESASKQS

B1: RASSF1A ∆N (residues 121–340) (domain or fragment, UniProt Q9NS23-2 121-340, looked up)
chain: EPVEWETPDLSQAEIEQKIKEYNAQINSNLFMSLNKDGSYTGFIKVQLKLVRPVSVPSSKKPPSLQDARRGPGRGTSVRRRTSFYLPKDAVKHLHVLSRTRAREVIEALLRKFLVVDDPRKFALFERAERHGQVYLRKLLDDEQPLRLRLLAGPSDKALSFVLKENDSGEVNWDAFSMPELHNFLRILQREEEEHLRQILQKYSYCRQKIQEALHACPLG
notes: Ras-association domain family 1 isoform A (RASSF1A), 340 residues, residues 121-340 (RBD plus SARAH domain); numbers count on: isoform A; 69 kDa with the MBP tag; Monomer-dimer equilibrium by SEC; also called ΔN; ΔN fragment; not shown: MBP, N-terminal, kept
B1 was tested. Which “stoichiometry N” value [1] did it give?
Its value is 2.

B2: RASSF1A ∆N-∆loop (residues 121–340 lacking the loop 177–197) (domain or fragment)
chain: EPVEWETPDLSQAEIEQKIKEYNAQINSNLFMSLNKDGSYTGFIKVQLKLVRPVSVVRRRTSFYLPKDAVKHLHVLSRTRAREVIEALLRKFLVVDDPRKFALFERAERHGQVYLRKLLDDEQPLRLRLLAGPSDKALSFVLKENDSGEVNWDAFSMPELHNFLRILQREEEEHLRQILQKYSYCRQKIQEALHACPLG
B2 was tested. Which Km of phosphorylation of ∆N-∆loop by Aurora A kinase domain (40 nM), 32P incorporation [2] did it give?
The Km of phosphorylation of ∆N-∆loop by Aurora A kinase domain (40 nM), 32P incorporation was 10 µM.

B3: SARAH domain of RASSF1A (residues 291–340) (domain or fragment, UniProt Q9NS23-2 291-340, looked up)
chain: VNWDAFSMPELHNFLRILQREEEEHLRQILQKYSYCRQKIQEALHACPLG
notes: Ras-association domain family 1 isoform A (RASSF1A), residues 291-340 (SARAH domain); numbers count on: isoform A; 51 kDa with the MBP tag; Monomer-dimer equilibrium by SEC; also called isolated SARAH domain; SARAH domain construct; not shown: MBP, N-terminal, kept
Does B3 bind [3]?
Result: binds

What about the “stoichiometry N” value [1] of the same binder?
The value was 2.

From publication PMC6447619, “New type of interaction between the SARAH domain of the tumour suppressor RASSF1A and its mitotic kinase Aurora A” (Scientific Reports, 2019)
